Results as given in patent US7052908B2, “Androgen receptor coactivators” (University of Rochester, priority 1998, dated 2006).
One block for each molecule: values may come before it.

Legend:
[1] = biological target: T1, AR (Homo sapiens, UniProt P10275); experiment: AR transcriptional activity (MMTV-CAT) in PC3 cells; details: TGFβ treatment
T1 sequence (P10275 1-920): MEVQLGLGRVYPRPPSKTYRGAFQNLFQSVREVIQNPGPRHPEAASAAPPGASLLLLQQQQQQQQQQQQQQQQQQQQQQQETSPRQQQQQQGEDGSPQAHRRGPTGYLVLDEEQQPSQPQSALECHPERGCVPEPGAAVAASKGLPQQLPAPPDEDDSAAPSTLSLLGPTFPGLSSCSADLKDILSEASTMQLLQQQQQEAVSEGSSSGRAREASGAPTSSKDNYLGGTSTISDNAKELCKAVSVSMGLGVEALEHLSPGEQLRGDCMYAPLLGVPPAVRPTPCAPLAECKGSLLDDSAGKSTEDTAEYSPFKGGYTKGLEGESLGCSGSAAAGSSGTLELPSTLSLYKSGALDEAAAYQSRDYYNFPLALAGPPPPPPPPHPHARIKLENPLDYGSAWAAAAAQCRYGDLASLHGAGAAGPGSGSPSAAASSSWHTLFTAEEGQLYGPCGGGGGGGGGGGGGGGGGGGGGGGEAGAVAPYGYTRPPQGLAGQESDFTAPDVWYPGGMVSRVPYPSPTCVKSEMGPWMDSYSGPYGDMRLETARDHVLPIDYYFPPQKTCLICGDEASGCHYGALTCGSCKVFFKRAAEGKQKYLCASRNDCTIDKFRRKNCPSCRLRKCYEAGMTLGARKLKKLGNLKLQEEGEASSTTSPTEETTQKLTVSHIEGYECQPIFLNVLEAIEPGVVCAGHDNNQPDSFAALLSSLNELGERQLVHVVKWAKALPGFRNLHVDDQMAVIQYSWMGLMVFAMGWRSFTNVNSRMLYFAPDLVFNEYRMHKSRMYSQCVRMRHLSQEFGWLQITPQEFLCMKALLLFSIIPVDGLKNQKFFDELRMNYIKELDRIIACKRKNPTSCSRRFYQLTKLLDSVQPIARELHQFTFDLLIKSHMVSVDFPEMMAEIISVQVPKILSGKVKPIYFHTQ

[2] = system: ARA55 mRNA; experiment: Northern blot of ARA55 mRNA in PC3 cells; type: cell-based, human; details: TGFβ 5 ng/ml
Procedure: The total RNA (25 μg) was fractionated on a 1% formaldehyde-MOPS agarose gel, transferred onto a Hybond-N nylon membrane (Amersham) and prehybridized. A probe corresponding to the 900 bp C-terminus of ARA55 or an ARA54-specific sequence was ^32P-labeled in vitro using Random Primed DNA Labeling Kit (Boehringer-Mannheim) according to the manufacture's protocol and hybridized overnight. After washing, the blot was exposed and quantified by Molecular Dynamics PhosphorImager. β-actin was used to monitor the amount of total RNA in each lane.

[3] = system: mARt877s; experiment: AR transactivation, transient transfection CAT reporter assay, mutant AR; type: cell-based, human
[4] = biological target: T2, wtAR (Homo sapiens, UniProt P10275); experiment: AR transactivation, transient transfection with MMTV-CAT reporter in DU145 cells; details: for AR transcriptional activity induction with cotransfected coactivator: wild type AR, 1 nM DHT, DU145, from 5-fold without coactivator
T2 sequence (P10275 1-920): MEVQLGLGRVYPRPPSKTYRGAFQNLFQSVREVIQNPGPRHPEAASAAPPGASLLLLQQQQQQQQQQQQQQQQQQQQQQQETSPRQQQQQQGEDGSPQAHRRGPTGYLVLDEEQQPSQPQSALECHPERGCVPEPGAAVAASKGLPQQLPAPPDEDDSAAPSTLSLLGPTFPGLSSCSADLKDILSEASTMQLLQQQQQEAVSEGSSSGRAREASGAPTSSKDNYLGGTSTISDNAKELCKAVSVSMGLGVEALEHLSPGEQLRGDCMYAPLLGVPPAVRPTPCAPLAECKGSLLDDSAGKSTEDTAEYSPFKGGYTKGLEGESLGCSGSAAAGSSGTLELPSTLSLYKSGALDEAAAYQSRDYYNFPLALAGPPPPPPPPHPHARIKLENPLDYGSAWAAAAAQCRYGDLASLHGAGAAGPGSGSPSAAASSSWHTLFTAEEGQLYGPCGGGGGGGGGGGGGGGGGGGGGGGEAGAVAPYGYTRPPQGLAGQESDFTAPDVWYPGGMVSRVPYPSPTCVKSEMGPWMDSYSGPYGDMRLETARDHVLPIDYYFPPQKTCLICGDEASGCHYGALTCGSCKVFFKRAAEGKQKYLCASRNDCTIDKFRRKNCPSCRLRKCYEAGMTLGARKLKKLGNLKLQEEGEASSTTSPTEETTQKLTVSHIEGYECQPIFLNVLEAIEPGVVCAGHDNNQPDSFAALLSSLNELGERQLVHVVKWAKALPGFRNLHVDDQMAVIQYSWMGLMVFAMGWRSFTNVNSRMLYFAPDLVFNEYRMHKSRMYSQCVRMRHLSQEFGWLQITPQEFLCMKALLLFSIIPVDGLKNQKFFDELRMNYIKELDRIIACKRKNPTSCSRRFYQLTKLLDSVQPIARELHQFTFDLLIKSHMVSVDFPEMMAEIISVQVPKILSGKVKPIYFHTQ

[5] = system: AR; experiment: Mammalian two-hybrid assay with CAT reporter in DU145 cells; type: cell-based, human
From the text: The mammalian two-hybrid system employed was essentially the protocol of Clontech (California), with the following modifications. […] The hinge and LBD of wtAR were then inserted into pGAL0. Similarly, the VP16 activation domain was fused to pCMX under the control of a CMV promoter, and designated pCMX-VP16 (provided by Dr. R. M. Evan).

[6] = biological target: T3, glucocorticoid receptor (GR) (Homo sapiens, UniProt P04150); experiment: Steroid receptor transactivation, MMTV-CAT reporter in DU145 cells; type: cell-based; details: DU145 cells
T3 construct: expressed in transfected cells; host or cells: DU145
T3 sequence (P04150 1-777): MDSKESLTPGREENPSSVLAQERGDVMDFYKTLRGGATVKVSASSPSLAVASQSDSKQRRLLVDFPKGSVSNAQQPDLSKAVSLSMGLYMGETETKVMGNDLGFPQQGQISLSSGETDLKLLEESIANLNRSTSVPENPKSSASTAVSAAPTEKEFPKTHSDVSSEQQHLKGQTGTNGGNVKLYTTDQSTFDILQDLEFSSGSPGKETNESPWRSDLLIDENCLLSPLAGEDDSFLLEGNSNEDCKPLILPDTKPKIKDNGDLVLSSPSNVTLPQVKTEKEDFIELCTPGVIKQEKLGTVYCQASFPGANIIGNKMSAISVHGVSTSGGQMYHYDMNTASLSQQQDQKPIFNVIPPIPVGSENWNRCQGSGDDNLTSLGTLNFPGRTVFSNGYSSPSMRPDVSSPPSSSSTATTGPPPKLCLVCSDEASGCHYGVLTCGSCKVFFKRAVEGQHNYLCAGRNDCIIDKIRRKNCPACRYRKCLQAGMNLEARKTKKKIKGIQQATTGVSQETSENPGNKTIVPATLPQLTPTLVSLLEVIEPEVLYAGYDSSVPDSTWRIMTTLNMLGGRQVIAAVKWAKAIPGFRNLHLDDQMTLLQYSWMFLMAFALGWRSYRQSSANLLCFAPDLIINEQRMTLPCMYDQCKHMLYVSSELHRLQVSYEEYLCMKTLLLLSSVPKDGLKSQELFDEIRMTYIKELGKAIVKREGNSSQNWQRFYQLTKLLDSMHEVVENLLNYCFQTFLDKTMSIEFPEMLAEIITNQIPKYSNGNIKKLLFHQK

[7] = biological target: T4, estrogen receptor (ER) (Homo sapiens, UniProt P03372); experiment: Steroid receptor transactivation, ERE-CAT reporter in DU145 cells; type: cell-based; details: DU145 cells
T4 construct: expressed in transfected cells; host or cells: DU145
T4 sequence (P03372 1-595): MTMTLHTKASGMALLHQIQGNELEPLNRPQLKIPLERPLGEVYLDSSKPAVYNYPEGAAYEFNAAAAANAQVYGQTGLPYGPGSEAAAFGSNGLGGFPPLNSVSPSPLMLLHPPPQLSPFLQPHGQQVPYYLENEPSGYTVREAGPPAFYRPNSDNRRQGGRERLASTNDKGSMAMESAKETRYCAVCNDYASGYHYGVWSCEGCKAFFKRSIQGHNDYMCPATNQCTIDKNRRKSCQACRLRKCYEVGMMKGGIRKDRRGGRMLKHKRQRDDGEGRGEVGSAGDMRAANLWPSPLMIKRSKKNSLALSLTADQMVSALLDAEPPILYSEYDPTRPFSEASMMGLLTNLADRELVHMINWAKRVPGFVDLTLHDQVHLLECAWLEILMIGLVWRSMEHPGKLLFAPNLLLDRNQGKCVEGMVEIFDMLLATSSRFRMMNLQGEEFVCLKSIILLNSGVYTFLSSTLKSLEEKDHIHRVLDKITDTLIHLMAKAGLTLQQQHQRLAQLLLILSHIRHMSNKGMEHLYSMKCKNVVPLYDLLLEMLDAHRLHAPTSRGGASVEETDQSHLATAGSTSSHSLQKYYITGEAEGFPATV

[8] = biological target: T5, progesterone receptor (PR) (Homo sapiens, UniProt P06401); experiment: Steroid receptor transactivation, MMTV-CAT reporter in DU145 cells; type: cell-based; details: DU145 cells, cognate ligand
T5 construct: expressed in transfected cells; host or cells: DU145
T5 sequence (P06401 1-933): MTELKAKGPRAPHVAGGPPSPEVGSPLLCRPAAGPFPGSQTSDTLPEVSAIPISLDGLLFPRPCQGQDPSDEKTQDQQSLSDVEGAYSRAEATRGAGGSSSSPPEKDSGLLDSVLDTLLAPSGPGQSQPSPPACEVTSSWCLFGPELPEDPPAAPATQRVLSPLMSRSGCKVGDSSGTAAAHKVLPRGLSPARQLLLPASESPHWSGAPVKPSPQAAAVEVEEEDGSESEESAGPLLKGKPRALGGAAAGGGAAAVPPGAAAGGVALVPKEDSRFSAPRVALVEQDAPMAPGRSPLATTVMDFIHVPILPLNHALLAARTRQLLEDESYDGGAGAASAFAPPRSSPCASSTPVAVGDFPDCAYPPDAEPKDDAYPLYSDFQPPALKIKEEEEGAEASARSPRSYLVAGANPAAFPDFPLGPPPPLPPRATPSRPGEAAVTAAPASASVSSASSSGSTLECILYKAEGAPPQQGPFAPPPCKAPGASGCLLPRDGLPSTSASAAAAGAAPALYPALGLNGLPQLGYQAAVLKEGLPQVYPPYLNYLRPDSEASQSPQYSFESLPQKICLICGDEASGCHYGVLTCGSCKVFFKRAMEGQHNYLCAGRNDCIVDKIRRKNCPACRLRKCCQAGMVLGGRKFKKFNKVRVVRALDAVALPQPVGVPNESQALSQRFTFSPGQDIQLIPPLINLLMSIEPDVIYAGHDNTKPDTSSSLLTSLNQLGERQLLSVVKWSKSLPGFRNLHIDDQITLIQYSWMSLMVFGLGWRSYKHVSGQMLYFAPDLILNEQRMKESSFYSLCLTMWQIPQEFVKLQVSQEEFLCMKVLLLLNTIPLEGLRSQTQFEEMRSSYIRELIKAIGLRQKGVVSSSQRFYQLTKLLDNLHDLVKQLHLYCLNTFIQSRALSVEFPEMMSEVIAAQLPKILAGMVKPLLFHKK

Molecule: C[C@]12CC[C@@H]3c4ccc(O)cc4CC[C@H]3[C@@H]1CC[C@@H]2O [E2, 17 β estradiol]
response of Art877a transactivation to ligand ([3]; absence of ARA54, E2 10^-9-10^-7 M, HF 10^-7-10^-5 M): responded | response of LNCaP mAR to ligand compared to wtAR ([3]; compared to wtAR): responded much better

Molecule: ARA70: the first identified AR coactivator, used as positive control [reference compound]
AR transcriptional activity induction with cotransfected coactivator [4]: 36 fold

B1: ARA54: 54 kDa androgen receptor coactivator, 474 aa, SEQ ID NO:2, expressed by transfection (protein)
chain: MSSEDREAQEDELLALASIYDGDEFRKAESVQGGETRIYLDLPQNFKIFVSGNSNECLQNSGFEYTICFLPPLVLNFELPPDYPSSSPPSFTLSGKWLSPTQLSALCKHLDNLWEEHRGSVVLFAWMQFLKEETLAYLNIVSPFELKIGSQKKVQRRTAQASPNTELDFGGAAGSDVDQEEIVDERAVQDVESLSNLIQEILDFDQAQQIKCFNSKLFLCSICFCEKLGSECMYFLECRHVYCKACLKDYFEIQIRDGQVQCLNCPEPKCPSVATPGQVKELVEAELFARYDRLLLQSSLDLMADVVYCPRPCCQLPVMQEPGCTMGICSSCNFAFCTLCRLTYHGVSPCKVTAEKLMDLRNEYLQADEANKRLLDQRYGKRVIQKALEEMESKEWLEKNSKSCPCCGTPIEKLDGCNKMTCTGCMQYFCWICMGSLSRANPYKHFNDPGSPCFNRLFYAVDVDDDIWEDEVED
modifications: Homo sapien
enhancement of wtAR transactivation by coexpressed ARA54 ([4]; DHT 10^-10 to 10^-8 M): 3–5 fold | induction of AR transcriptional activity by ARA54 ([4]; DU145 cells, cognate ligand): up to 6 fold | effect of ARA54 on GR transcriptional activity [6]: less than 2 fold | effect of ARA54 on ER transcriptional activity [7]: less than 2 fold | induction of PR transcriptional activity by ARA54 [8]: 3–5 fold | CAT activity on coexpression of AR with ARA54 ([5]; DU145, 10^-8 M DHT): significantly induced

Further lines, with some results ahead:

increase of AR transcriptional activity [1]: 70%
Molecule: TGFβ
induction of ARA55 mRNA [2]: 2 fold

AR transcriptional activity induction with cotransfected coactivator [4]: 21 fold
Molecule: Rb: retinoblastoma protein, SEQ ID NO:8, expressed by transfection as AR coactivator
induced CAT activity in mammalian two-hybrid assay (interaction with AR) ([5]; DU145, Rb with near full length AR (aa 36-918)): 3 fold
